Source: the RNAGym collection of RNA variant scans (doi:10.7554/elife.80360)

B1: HDV Ribozyme (parent)
chain: GGCCGGCAUGGUCCCAGCCUCCUCGCUGGCGCCGGCUGGGCAACAUUCCGAGGGGACCGUCCCCUCGGUAAUGGCGAAUGGGACCCA

Variants of: B1
Assay: self-cleavage, relative activity (ratio to wild type); higher = more cleavage; co-transcriptional

| Variant | self-cleavage |
| --- | --- |
| C3A C36U | 0.0915 |
| G2C C15U | 0.0563 |
| C3A A56G | 0.632 |
| C3A A42G | 0.0615 |
| C3A G5U | 0.00831 |
| G2U C15U | 0 |
| G2U C15G | 0.0282 |
| G2U G6C | 0.106 |
| G2U G6A | 0.0355 |
| G2C U20A | 0.0361 |
| G2C C61A | 0.0391 |
| C3A C58G | 0.606 |
| G2U A71U | 0.0287 |
| G2C C86A | 0.128 |
| G2C C86U | 0.0779 |
| G2C U37C | 0.17 |
| G2U C66U | 0.0895 |
| G2U C66G | 0.0198 |
| C3A A51G | 0.444 |
| G2C A71G | 0.021 |
| G2C G50A | 0.138 |
| G2C G50C | 0.0277 |
| G2U G50U | 0 |
| G2C C44U | 0.0453 |

| Variant | self-cleavage |
| --- | --- |
| G2C C44G | 0.0656 |
| G2C C44A | 0.0449 |
| C3A C4G | 0.0225 |
| G2A U12C | 0.0627 |
| G2U G80C | 0.0455 |
| G2U G80A | 0.0496 |
| G2U G80U | 0.0208 |
| G2U G25A | 0.0391 |
| G2U G25C | 0.0244 |
| G2C A77G | 0.0346 |
| C3A C44U | 0.145 |
| C3A A83U | 0.0821 |
| G2A U46G | 0.0817 |
| G2A U46A | 0.0601 |
| G2U U12A | 0.17 |
| C3A C63G | 0.285 |
| C3A C63U | 0.559 |
| G2U C22U | 0.032 |
| G2U C22A | 0.035 |
| G2U C22G | 0.0193 |
| C3A C15G | 0.237 |
| C3A C15A | 0.306 |
| G2U A87C | 0.0661 |
| G2C C84G | 0.0639 |

| Variant | self-cleavage |
| --- | --- |
| G2C C84A | 0.0462 |
| G2U C26A | 0.0357 |
| G2C C30G | 0.0594 |
| G2C C30A | 0.0875 |
| C3A C57G | 0.587 |
| C3A C57A | 0.659 |
| G2U A56U | 0.016 |
| G2U A56C | 0.0405 |
| G2U C63G | 0.0528 |
| G2U C63A | 0.101 |
| G2U C63U | 0.0545 |
| G2U C32A | 0.0302 |
| G2U C32U | 0.0437 |
| G2U G40C | 0.0455 |
| G2U G40A | 0.0369 |
| G2U C85U | 0 |
| G2C C26A | 0.314 |
| G2C U12G | 0.0426 |
| G2C U12A | 0.17 |
| G2U G73C | 0 |
| G2C U27G | 0.0437 |
| G2C U27C | 0.0496 |
| G2C G82U | 0 |
| G2C U65C | 0.14 |

| Variant | self-cleavage |
| --- | --- |
| G2C U65A | 0 |
| G2U C30U | 0.025 |
| G2U C30G | 0.0601 |
| G2C A78G | 0.0875 |
| G2C A78U | 0.132 |
| C3A G10A | 0.335 |
| G2U U27A | 0.0767 |
| G2U U27C | 0.0198 |
| C3A C33U | 0.166 |
| G2U G52C | 0.0339 |
| G2U G52A | 0.0704 |
| G2U C75G | 0.0256 |
| C3A A78U | 0.0627 |
| G2U U37C | 0.0801 |
| G2U U37G | 0.0422 |
| G2U U37A | 0.0378 |
| C3A C41G | 0.0761 |
| C3A C49G | 0.51 |
| C3A C49A | 0.554 |
| C3A C49U | 0.777 |
| G2C C48G | 0.0545 |
| G2C C48A | 0 |
| G2U U9C | 0.104 |
| G2U U9G | 0.101 |

| Variant | self-cleavage |
| --- | --- |
| G2C C36U | 0.0799 |
| G2C C36A | 0.138 |
| G2U G82A | 0.0189 |
| G2U G76C | 0.0279 |
| G2U G76U | 0.0762 |
| G2U U72A | 0.0287 |
| G2U G55A | 0.0732 |
| G2U G55C | 0.116 |
| G2U C44G | 0 |
| G2U A45C | 0 |
| G2U A45G | 0 |
| G2C G39U | 0.0246 |
| G2U G38U | 0.0126 |
| G2U G38A | 0.032 |
| G2A U79A | 0.0225 |
| G2A U79C | 0.0804 |
| G2A U79G | 0.089 |
| G2C G6U | 0.0601 |
| G2C C32A | 0.0712 |
| G2C C32G | 0.0554 |
| G2C C32U | 0.101 |
| G2U C61A | 0.0913 |
| G2U C61G | 0.0386 |
| G2C A56C | 0.0678 |

| Variant | self-cleavage |
| --- | --- |
| G2C A56U | 0.0482 |
| G2C A56G | 0.0332 |
| G2C U60C | 0.0545 |
| G2U G29A | 0.0178 |
| G2A G81C | 0.115 |
| G2A G81A | 0.0692 |
| G2A G81U | 0.0346 |
| G2C G11A | 0.0455 |
| C3A C75U | 0.128 |
| G2C G81A | 0.0511 |
| G2U G53C | 0.0647 |
| G2U G53A | 0.0412 |
| G2C C66G | 0.0978 |
| C3A C84G | 0.158 |
| C3A C84A | 0.391 |
| G2C G74C | 0.0308 |
| G2C G74A | 0.113 |
| G2C G74U | 0.1 |
| C3A C21A | 0.0339 |
| C3A C21U | 0.0314 |
| G2C G76C | 0.0747 |
| G2C G76A | 0.13 |
| G2U C86U | 0.095 |
| G2U C86A | 0.152 |

| Variant | self-cleavage |
| --- | --- |
| G2U G31A | 0.0578 |
| G2U G31U | 0.0268 |
| C3A A45G | 0.469 |
| C3A A45C | 0.0482 |
| G2U C33U | 0.0422 |
| C3A A16C | 0.0875 |
| C3A A16G | 0.401 |
| G2C C18G | 0 |
| G2U G17U | 0.0366 |
| G2U G17A | 0 |
| G2U C64G | 0.0791 |
| G2C C33U | 0.0608 |
| G2C C33G | 0.0514 |
| G2C G10A | 0.145 |
| G2C G10C | 0 |
| G2C G10U | 0.056 |
| G2C A42U | 0.0475 |
| G2U C48U | 0.0563 |
| G2U C48G | 0.0615 |
| G2U U60A | 0.0396 |
| G2U U60G | 0.0831 |
| G2C A70G | 0 |
| G2C A70U | 0.0601 |
